Assay results from US20190300618A1 (Merck Sharp & Dohme, published 2019).
Numbering of substitutions follows the chain as printed.

Key:
Experiment in all cases: flow cytometry, CHO-K1; single column;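 note: CHO-K1 cells transiently transfected with hCD27 alanine mutant constructs, anti-hCD27 antibody binding measured by flow cytometry, 30 min at 4 °C, wild-type hCD27 binding taken as 100%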
[1] = molecular target: T1, V30A
T1 construct: also called hCD27 V30A
T1 receptor: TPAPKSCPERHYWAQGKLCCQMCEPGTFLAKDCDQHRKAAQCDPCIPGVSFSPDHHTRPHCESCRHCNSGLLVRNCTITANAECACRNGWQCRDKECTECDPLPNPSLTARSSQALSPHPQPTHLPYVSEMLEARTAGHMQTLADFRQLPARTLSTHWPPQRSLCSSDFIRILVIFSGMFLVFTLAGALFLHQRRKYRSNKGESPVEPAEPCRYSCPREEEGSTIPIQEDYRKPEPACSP
Description: (§1) The ability of several anti-hCD27 antibodies to bind to a series of hCD27 alanine mutants was determined using CHO-K1 cells, transiently transfected pCI-neo empty vector, pCI-neo.hCD27 and several pCI-neo.CD27Ala mutant constructs.
(§2) Detached cells were transferred to 96 wells round-bottomed well plates at approximately 1.2×10⁵ cells/well. After spinning down the cells, discarding the supernatants and re-suspending the cells in the residual volume, the primary antibodies were added and incubated for 30 minutes at 4° C. Cells were washed three times with DPBS/BSA 1%, followed by centrifugation, discarding of the supernatants and re-suspension in the residual volume. […] After washing once, antibody binding was detected using the HTS plate reader (FACS Canto II) and FlowJo software for data analysis. Debris, dead cells and doublets were excluded from the analysis. Binding was expressed as the geometric mean of the FITC signal, relative to antibody binding to hCD27, which was set at 100%.

[2] = molecular target: T2, K38A
T2 construct: also called hCD27 K38A
T2 receptor: T1 receptor with A30V, K38A
Description: as §1, §2

[3] = molecular target: T3, W13A
T3 construct: also called hCD27 W13A
T3 receptor: T1 receptor with W13A, A30V
Description: as §1, §2

[4] = molecular target: T4, W90A
T4 construct: also called hCD27 W90A
T4 receptor: T1 receptor with A30V, W90A
Description: as §1, §2

[5] = molecular target: T5, R10A
T5 construct: also called hCD27 R10A
T5 receptor: T1 receptor with R10A, A30V
Description: as §1, §2

[6] = molecular target: T6, H60A
T6 construct: also called hCD27 H60A
T6 receptor: T1 receptor with A30V, H60A
Description: as §1, §2

[7] = molecular target: T7, Q41A
T7 construct: also called hCD27 Q41A
T7 receptor: T1 receptor with A30V, Q41A
Description: as §1, §2

[8] = molecular target: T8, R87A
T8 construct: also called hCD27 R87A
T8 receptor: T1 receptor with A30V, R87A
Description: as §1, §2

[9] = molecular target: T9, P8A
T9 construct: also called hCD27 P8A
T9 receptor: T1 receptor with P8A, A30V
Description: as §1, §2

[10] = molecular target: T10, P44A
T10 construct: also called hCD27 P44A
T10 receptor: T1 receptor with A30V, P44A
Description: as §1, §2

B1: hCD27.15-6B (humanized hCD27.15, human IgG4, Clone 6B) (antibody, V domains shown)
VH: QVQLVQSGAEVKKPGASVKVSCKASGFIIKATYMHWVRQAPGQRLEWMGRIDPANGETKYDPKFQVRVTITADTSASTAYMELSSLRSEDTAVYYCARYAWYFDVWGQGTLVTVSS
VL: DIQMTQSPSSLSASVGDRVTITCRASENIYSFLAWYQQKPGKAPKLLIYHAKTLAEGVTSRFSGSGSGTDFTLTISSLQPEDSATYYCQHYYGSPLTFGQGTRLEIKR
notes: humanized version of hCD27.15 from WO2012/004367 with identical CDR regions; also called hCD27.15 (humanized 6B); hCD27.15 6B humanized antibody
% of WT hCD27 binding (geo mean FITC) [1]: 82.6%
% of WT hCD27 binding (geo mean FITC) [2]: 97.6%
% of WT hCD27 binding (geo mean FITC) [3]: 71.4%
% of WT hCD27 binding (geo mean FITC) [4]: 93.8%
% of WT hCD27 binding (geo mean FITC) [5]: 58.9%
% of WT hCD27 binding (geo mean FITC) [6]: 82.6%
% of WT hCD27 binding (geo mean FITC) [7]: 33.9%
% of WT hCD27 binding (geo mean FITC) [8]: 114%
% of WT hCD27 binding (geo mean FITC) [9]: 63%
% of WT hCD27 binding (geo mean FITC) [10]: 68.7%
